Reference: the RNAGym collection of RNA variant scans (doi:10.1073/pnas.2313332121)

B1: TPR t1 (parent)
chain: GACCAAUCUGCCCUCAGAGCUCGAGAACAUCUUCGGAUGCAGAGGAGGCAGGCUUCGGUGGCGCGAUAGCGCCAACGUCCUCAACCUCCAAUGCAUCCCACCACAUGAUGAUGCCUGAAGAGCCUUGGUUUUUUG

Variants of: B1
Assay: polymerase ribozyme fitness, log enrichment relative to wild type (log ratio); higher = more active; in vitro selection for triplet polymerase activity
How it was run: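 After PCR construction and transcription, each subunit's mutant library from a heterodimeric triplet polymerase ribozyme was annealed with a biotinylated primer, the partner subunit and triplets. Incubation was frozen, at −7 °C, and extended constructs were gel-excised, bound to streptavidin beads and amplified by RT-PCR, in one selection round done in triplicate. Fitness is the logarithm of a genotype's enrichment divided by that of the wild type, from inverse-variance-weighted replicate averages of Illumina-sequenced inputs and outputs. The base of the logarithm is 2, and genotypes needed ≥10 input reads and ≥1 read per output.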

Row | Variant | polymerase ribozyme fitness (log ratio)
1 | GACCAAUCUGCCCUCAGAGCUCGAGAACAUCUUCGGAUGCAGAGGAGGCAGGCUUCAGUGGCGCGAUAGCGCCAACGUCCUCAACCUCCAAUGCCUCCCACCACAUGAUGAUGCCUGAAGAGCCUUGGUUUUUUG | -1.81
2 | GACCAAUCUGCCCUCAGAGCUCGAGAACAUCUUCGGAUGCAGAGGAGGCAGGCUUUGGUGGCGCGAUAGCGCCAACGUCCUCAACCUCCAAUGCAUCCCACCACAUGAUGAUGCCUGAAGAGCCUUGGUAUUUUG | 0.174
3 | GACCAAUCUGCCCUCAGAGCUCGAGAACAUCUUCGGAUGCAGAGGAGGCAGGCUUUGGUGGCGCGAUAGCGCCAACGUCCUCAACCUCCAAUGCAUCCCACCACAUGAUGAUGCCUGAAGAGCCUUGGUCUUUUG | 1.02
4 | GACCAAUCUGCCCUCAGAGCUCGAGAACAUCUUCGGAUGCAGAGGAGGCAGGCUUUGGUGGCGCGAUAGCGCCAACAUCCUCAACCUCCAAUGUAUCCCACAACAUGAUGAUGCCUGAAGAGCCUUGGUUUUUUG | -2.87
5 | GACCAAUCUGCCCUCAGAGCUCGAGAACAUCUUCGGAUGCAGAGGAGGCAGGCUUCAGUGGCGCGAUAGCGCCAACGUCCUCAACCUCCAAUGCAUCCCACCACAUGAUGAUGCCUGAAGACACUUGGUCUUUUG | -1.47
6 | GACCAAUCUGCCCUCAGAGCUCGAGAACAUCUUCGGAUGCAGAGGAGGCAGGCUUUGGUGGCGCGAGAGCACCAACGUCUUCAACCUCCAAUGCAUCCCACCACAUGAUGAUGCCUGAACAGCCUUGGUUUUUUG | -6.12
7 | GACCAAUCUGCCCUCAGAGCUCGAGAACAUCUUCGGAUGCAGAGGAGGCAGGCUUUAGUGGCGCGAUAGCGCCAACGUGCUCAACCUCCAAUGCAUCCCACCACAUGAUGAUGCCUGAAGAGCCUUGGUUUUUUG | -1.48
8 | GACCAAUCUGCCCUCAGAGCUCGAGAACAUCUUCGGAUGCAGAGGAGGCAGGCUUCAGCGGCGCGAUAGCGCCAACGUCCUCAACCUCCAAUGCAUCCCACCACAUGAUGAUGCCUGAACAGCCUUGGUUUAUUG | -0.265
9 | GACCAAUCUGCCCUCAGAGCUCGAGAACAUCUUCGGAUGCAGAGGAGGCAGGCUUUGGUGUCGCGAUAGCGCCAACGUCCUCAACCUCCAAUACAUCCCACCACAUGAUGUUGCCCGAAGAGCCUUGGUUUUUUG | -4.78
10 | GACCAAUCUGCCCUCAGAGCUCGAGAACAUCUUCGGAUGCAGAGGAGGCAGGCUUCAGUGGCGCGAUAGCGCCAACGUCCUCAACCUCCAAUGCAUCCCACCAUAUGAUGAUGCCUGAAGAGCCUUGGUUUUUUG | -0.961
11 | GACCAAUCUGCCCUCAGAGCUCGAGAACAUCUUCGGAUGCAGAGGAGGCAGGCUUCAGUGGCGCGAUAGCGCCAACGUCCUCAACCUCCAAUGCAUCCCACCAAAUGAUGAUGCCUGAAGAGCCUUGGUUUUUUG | -2.92
12 | GACCAAUCUGCCCUCAGAGCUCGAGAACAUCUUCGGAUGCAGAGGAGGCAGGCUUUGGUGGCGCGAUAGCGCCAACGUCCUCAACCUCCAAUGCAUCCCACCACAAGAUGAUGCCUGAAGAGCCUUGGUUUUUUG | 0.0907
13 | GACCAAUCUGCCCUCAGAGCUCGAGAACAUCUUCGGAUGCAGAGGAGGCAGGCUUUGGUGGCGCGAUAGCGCCAACGUCCUCAACCUCCAAUGCAUCCCACCACAUGAUGAUGCCUGAAGAGCCUUGAUUUUUUG | -1.64
14 | GACCAAUCUGCCCUCAGAGCUCGAGAACAUCUUCGGAUGCAGAGGAGGCAGGCUUUGGUGGCGCGAUAGCGCCAACGUCCUCAACCUCCAAUGCAUCCCACCACAUGAUGAUGCCUGAAGAGCCUUGGAUUUUUG | -1.15
15 | GACCAAUCUGCCCUCAGAGCUCGAGAACAUCUUCGGAUGCAGAGGAGGCAGGCUUUGGUGGCGCGAUAGCGCCAACGUCCUCAACCUCCAAUGCAUCCCACCACAUGAUGACGCCUCAAUAGCCUUCGUUUAUUG | -4.94
16 | GACCAAUCUGCCCUCAGAGCUCGAGAACAUCUUCGGAUGCAGAGGAGGCAGGCUUCAGUGGCGCGAUAGCGCCAACGUCCUCACCCUCCAAUGCAUCCCACCACAUGAUGAUGCCUGAAGAGCCUUGGUUUUUUG | -1.76
17 | GACCAAUCUGCCCUCAGAGCUCGAGAACAUCUUCGGAUGCAGAGGAGGCAGGCUUUGGUGGCGCGAUAGCGCCAACGUCCUCAACCUCCAAUGCAUCCCACCACAUGAUGAUGCCUAAAGAGCCUUGGUUUUUUG | -1.46
18 | GACCAAUCUGCCCUCAGAGCUCGAGAACAUCUUCGGAUGCAGAGGAGGCAGGCUUUGGUGCCGCGAUAGCGCCAACGUCCUCAACCUCCAAUGCAUCCCACCACAUGAUGAUGCCUCAAGAGCCUUGGUUUUUUG | -4.62
19 | GACCAAUCUGCCCUCAGAGCUCGAGAACAUCUUCGGAUGCAGAGGAGGCAGGCUUUGGUGACGCGAUAGCGCCAACGUCCUCAACCUCCAAUGCAUCCCACCACAUGAUGAUGCCUGAAGAGCCUUGGUUUUUUG | -4.41
20 | GACCAAUCUGCCCUCAGAGCUCGAGAACAUCUUCGGAUGCAGAGGAGGCAGGCUUUGGGGGCGCGAUAGCGCCGACGUCCUCAACCUCCAAUGCAUCCCACAACAUGAUGAUGCCUGAAGAGCCUUUGUUUUUUG | -3.57
21 | GACCAAUCUGCCCUCAGAGCUCGAGAACAUCUUCGGAUGCAGAGGAGGCAGGCUUCAGUGGCGCGAUAGCGCCAUCGUCCUCAACCUCCAAUGCACCCCACCACAUGAUGAUGCCUGAAGAGCCUUGGUUCUUUG | -1.53
